Paper PMC12499481, “Design of the Hydrophobic Core of Self‐Assembling Peptide Fibrils for Enhanced Neural Regeneration” (Small Science, 2025)

B1: EF‐CF (peptide)
peptide: KFKFQFN
notes: designed variant of enhancing factor-C (EF-C), pattern KXKXQXN with X = F; self-assembling peptide; made on Fmoc-Asn(Trt) Wang resin; also called KFKFQFN; source: synthetic peptide (Fmoc-SPPS, preparative RP-HPLC, purity ≥ 90 %)
B2: EF‐CW (peptide)
peptide: KWKWQWN
notes: designed variant of enhancing factor-C (EF-C), pattern KXKXQXN with X = W; self-assembling peptide; made on Fmoc-Asn(Trt) Wang resin; also called KWKWQWN; source: synthetic peptide (Fmoc-SPPS, preparative RP-HPLC, purity ≥ 90 %)
B3: EF‐CI (peptide)
peptide: KIKIQIN
notes: designed variant of enhancing factor-C (EF-C), pattern KXKXQXN with X = I; self-assembling peptide; made on Fmoc-Asn(Trt) Wang resin; also called KIKIQIN; source: synthetic peptide (Fmoc-SPPS, preparative RP-HPLC, purity ≥ 90 %)
B4: EF‐CL (peptide)
peptide: KLKLQLN
notes: designed variant of enhancing factor-C (EF-C), pattern KXKXQXN with X = L; self-assembling peptide; made on Fmoc-Asn(Trt) Wang resin; also called KLKLQLN; source: synthetic peptide (Fmoc-SPPS, preparative RP-HPLC, purity ≥ 90 %)
B5: EF‐CV (peptide)
peptide: KVKVQVN
notes: designed variant of enhancing factor-C (EF-C), pattern KXKXQXN with X = V; self-assembling peptide; made on Fmoc-Asn(Trt) Wang resin; also called KVKVQVN; source: synthetic peptide (Fmoc-SPPS, preparative RP-HPLC, purity ≥ 90 %)

Key:
[1] = biological target: the molecule itself; assay: dynamic light scattering; self-assembly; peptide diluted from 10 mM DMSO stock into DPBS (6 μM to 1 mM), 24 h incubation, room temperature; derived count rate below 5 kcps defined as no aggregation
[2] = biological target: the molecule itself; assay: conversion rate assay (3 kDa centrifugal filtration, fluorescamine fluorescence); self-assembly; 1 mM peptide incubated 24 h, monomers separated from fibers at 12 000 g for 60 min at 4 °C; filtrated against nonfiltrated fluorescence

Row | Protein | aggregation concentration [1] [µM] | conversion rate [2] [%]
1 | B1 | ≤ 100 | 94
2 | B2 | ≤ 100 | 94
3 | B3 | ≤ 100 | 93
4 | B4 | ≤ 100 | 73
5 | B5 | ≤ 100 | 62
